Measurements reported in patent US7521540B2, “CYR61 compositions and methods” (Munin Corporation, priority 1996, dated 2009).

Key:
[1] = Heparin binding assay (salt elution from heparin-Sepharose/agarose); settings: for NaCl concentration of elution from heparin-Sepharose/agarose: increasing salt concentrations
HUVE cells = test: Fisp12 cell attachment assay, HUVE cells; assay type: cell-based, human; settings: coating 20 μg/ml, HUVE cells
Procedure: The capacity of Fisp12 to affect cell adhesion was also investigated. Fisp12 cell attachment assays were performed essentially as described (Oliver et al., [1989]). 96-well immunological plates were coated for 16 hours at 4° C. with 20 μg/ml Cyr61, Fisp12 or fibronectim (Gibco BRL) in PBS containing 0.1 mg/ml BSA and blocked with 10 mg/ml BSA for 1 hour at room temperature. HUVE cells were plated at 10^4 cells/well in F12K media with 10% FBS (Hyclone Laboratories, Inc., Logan, Utah); NIH 3T3 fibroblasts were plated at 3×10^4 cells/well and Mv1Lu cells were plated at 5×10^4 cells/well in minimal essential medium (MEM) with 10% FBS. After 1 hour incubation cells were fixed, stained with methylene blue and quantified as described (Oliver et al., [1989]). Cell spreading was examined on cells plated on 100 mm polystyrene petri dishes coated with 2.5 ml of a 20 μg/ml solution of Cyr61, Fisp12 or fibronectin. 10^7 cells were plated on each dish and cell spreading was analyzed 90 minutes after plating by microscopy at 100× magnification.

NIH 3T3 fibroblasts = test: Thymidine incorporation (mitogen potentiation), NIH 3T3; assay type: cell-based, mouse
Procedure: More specifically, NIH 3T3 fibroblast cells were plated on 24-well plates at 3×10^4 cells/well and grown in DMEM with 10% fetal bovine serum (Intergen Co., Purchase, N.Y.) for 3-4 days and incubated with medium containing 0.2% FBS for the following 48 hours. The following compounds, at the parenthetically noted final concentrations, were then added to the plated cells in fresh DMEM containing 0.2% fbs and [^3H]-thymidine (1 μCi/ml final concentration; ICN Biomedicals, Inc., Costa Mesa, Calif.): bFGF (15 ng/ml), PDGF-BB (30 ng/ml), and murine Cyr61 (0.5-5 μg/ml). These compounds were added to individual plates according to the following pattern: 1) no supplementation; 2) murine Cyr61; 3) bFGF; 4) murine Cyr61 and bFGF; 5) PDGF-BB; and 6) murine Cyr61 and PDGF. After 18-20 hours of incubation, cells were washed with PBS and fixed with 10% trichloroacetic acid. DNA was dissolved in 0.1 N NaOH and thymidine incorporation was determined. […] Without any supplements, 3T3 cells incorporated approximately 1.8×10^4 cpm of [^3H]-thymidine, in the presence or absence of Cyr61. Cells exposed to bFGF alone incorporated about 1.2×10^5 cpm; cells contacting bFGF and murine Cyr61 incorporated 2×10^5 cpm. Cells receiving PDGF-BB incorporated about 1.2×10^5 cpm; and cells exposed to PDGF-BB and murine Cyr61 incorporated approximately 2.4×10^5 cpm.
(§1) DNA synthesis for HUVE cells and NIH 3T3 fibroblasts was measured by thymidine incorporation as described previously (Kireeva et al., [1996]) with minor modifications. HUVE cells were grown in 24-well plates to a subconfluent state, serum-starved for 24 hours and treated with F12K medium containing 10% fetal bovine serum (FBS), 1 μCi/ml [^3H]-thymidine and 10 ng/ml basic Fibroblast Growth Factor (bFGF) (Gibco-BRL, Inc.) with various concentrations of Cyr61 and Fisp12 as indicated. NIH 3T3 fibroblasts were grown to subconlfluence, serum-starved for 48 hours, and treated with Minimal Essential Medium (MEM) containing 0.5% FBS, 1 μCi/ml [^3H]-thymidine, bFGF and various concentrations of Cyr61 or Fisp12. Thymidine incorporation into the trichloroacetic acid-insoluble fraction was determined after 24 hour incubation. Logarithmically grown mink lung epithelial cells (Mv1lu, CCL64) were treated with various concentrations of TGF-β1 (Gibco-BRL) and 2 μg/ml of Cyr61 or Fisp12 for 18 hours; [^3H]-thymidine was then added to 1 μCi/ml for 2 hours. Thymidine incorporation was determnined as described above.

[2] = test system: mink lung epithelial cells (Mv1lu, CCL64); test: TGF-β inhibition of DNA synthesis; assay type: cell-based; settings: 2 μg/ml, 18 hours
Procedure: as §1

B1: Cyr61: Cysteine-rich ECM signaling protein; murine sequence SEQ ID NO:2, recombinant from Baculovirus-infected Sf9 cells (protein, listed as Mus musculus)
chain: MSSSTFRTLAVAVTLLHLTRLALSTCPAACHCPLEAPKCAPGVGLVRDGCGCCKVCAKQLNEDCSKTQPCDHTKGLECNFGASSTALKGICRAQSEGRPCEYNSRIYQNGESFQPNCKHQCTCIDGAVGCIPLCPQELSLPNLGCPNPRLVKVSGQCCEEWVCDEDSIKDSLDDQDDLLGLDASEVELTRNNELIAIGKGSSLKRLPVFGTEPRVLFNPLHAHGQKCIVQTTSWSQCSKSCGTGISTRVTNDNPECRLVKETRICEVRPCGQPVYSSLKKGKKCSKTKKSPEPVRFTYAGCSSVKKYRPKYCGSCVDGRCCTPLQTRTVKMRFRCEDGEMFSKNVMMIQSCKCNYNCPHPNEASFRLYSLFNDIHKFRD
- NaCl concentration of elution from heparin-Sepharose/agarose [1]: 0.8-1.0 M NaCl
- cell attachment to coated dishes (HUVE cells): promoted the attachment
- [3H]-thymidine incorporation with PDGF-BB (NIH 3T3 fibroblasts; PDGF-BB 30 ng/ml plus murine Cyr61 0.5-5 μg/ml): approximately 2.4×10^5 cpm
- [3H]-thymidine incorporation with bFGF (NIH 3T3 fibroblasts; bFGF 15 ng/ml plus murine Cyr61 0.5-5 μg/ml): 2×10^5 cpm
- minimum concentration for enhancement of bFGF- or PDGF-BB-induced thymidine incorporation (NIH 3T3 fibroblasts; either cell type (NIH 3T3 or HUVE)): 0.5 to 1.0 µg/mL
- [3H]-thymidine incorporation, no growth factor (NIH 3T3 fibroblasts; presence or absence of Cyr61): approximately 1.8×10^4 cpm
- effect on TGF-β inhibition of DNA synthesis [2]: enhanced the ability of TGF-β to inhibit DNA synthesis

B2: Fisp12: Cysteine-rich murine protein, SEQ ID NO:6, mouse ortholog of CTGF (protein, listed as Mus musculus)
chain: MLASVAGPISLALVLLALCTRPATGQDCSAQCQCAAEAAPHCPAGVSLVLDGCGCCRVCAKQLGELCTERDPCDPHKGLFCDFGSPANRKIGVCTAKDGAPCVFGGSVYRSGESFQSSCKYQCTCLDGAVGCVPLCSMDVRLPSPDCPFPRRVKLPGKCCKEWVCDEPKDRTAVGPALAAYRLEDTFGPDPTMMRANCLVQTTEWSACSKTCGMGISTRVTNDNTFCRLEKQSRLCMVRPCEADLEENIKKGKKCIRTPKIAKPVKFELSGCTSVKTYRAKFCGVCTDGRCCTPHRTTTLPVEFKCPDGEIMKKNMMFIKTCACHYNCPGDNDIFESLYYRKMYGDMA
- NaCl concentration of elution from heparin-Sepharose/agarose [1]: 0.2 to 0.6 M NaCl
- peak elution from heparin agarose ([1]; metabolically labeled cell lysates): 0.4 M NaCl
- cell attachment to coated dishes (HUVE cells): promoted the attachment
- enhancement of FGF-induced DNA synthesis (NIH 3T3 fibroblasts; NIH 3T3 fibroblasts): enhance DNA synthesis induced by fibroblast growth factor
- mitogenic activity by itself (NIH 3T3 fibroblasts; any tested assay conditions): did not exhibit any mitogenic activity
- effect on TGF-β inhibition of DNA synthesis [2]: enhanced the ability of TGF-β to inhibit DNA synthesis
